According to the supplement of paper PMC10567573:

B1: RAB40A (parent)
chain: NWLGRPSKVLSLQDLCCRTIVSCT

Variants of: B1
Assay: protein stability index of a GFP-peptide fusion (GPS, HEK-293T) (PSI 1-6); higher = more stable
Settings: c terminus: a fixed tail appended
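Note: lentivirally expressed fusions sorted by FACS into six bins by GFP to DsRed ratio, PSI derived from sequencing read proportions per bin multiplied by bin number.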

First: NWLGRPSKVLSLQDLCNRTIVSCT [C17N]
Second: NWLGRPSKVLSLQDLCCRTMVSCT [I20M]
The protein stability index of the first is higher: 2.95 for the first, 2.83 for the second.

Going from NWLGRPSKVLSLQDLCCRTWVSCT [I20W] to NWLGRPSKVLSLQDLCCRTKVSCT [I20K], the protein stability index rises from 2.18 to 2.62.

First: NWLGRPSKVLSLQDLCCRTDVSCT [I20D]
Second: NWLGRPSKVLSLQDLCCRTHVSCT [I20H]
The protein stability index of the first is lower: 2.4 for the first, 2.48 for the second.

First: NWLGRPSKVLSLQDLCCRTFVSCT [I20F]
Second: NWLGRPSKVLSLQDLCCRTNVSCT [I20N]
The protein stability index of the first is lower: 1.89 for the first, 1.91 for the second.

First: NWLGRPSKVLSLQDLCCRTTVSCT [I20T]
Second: NWLGRPSKVLSLQDLCCRTYVSCT [I20Y]
The protein stability index of the first is lower: 1.73 for the first, 2.1 for the second.

Going from NWLGRPSKVLSLQDLCCRTRVSCT [I20R] to NWLGRPSKVLSLQDLCCRTPVSCT [I20P], the protein stability index falls from 2.54 to 2.42.

First: NWLGRPSKVLSLQDLCCRTEVSCT [I20E]
Second: NWLGRPSKVLSLQDLCCRTCVSCT [I20C]
The protein stability index of the first is lower: 2.04 for the first, 2.32 for the second.

First: NWLGRPSKVLSLQDLCCRTGVSCT [I20G]
Second: NWLGRPSKVLSLQDLCCRTVVSCT [I20V]
The protein stability index of the first is higher: 2.47 for the first, 2.14 for the second.

Compared with NWLGRPSKVLSLQDLCCRTQVSCT [I20Q], NWLGRPSKVLSLQDLCCRTAVSCT [I20A] is lower in protein stability index: 2.26 for the first, 1.94 for the second.

First: NWLGRPSKVLSLQDLCCRTLVSCT [I20L]
Second: NWLGRPSKVLSLQDLCCRTSVSCT [I20S]
The protein stability index of the first is higher: 2.74 for the first, 2.08 for the second.

First: NWLGRPSKVLSLQDWCCRTIVSCT [L15W]
Second: NWLGRPSKVLSLQDCCCRTIVSCT [L15C]
The protein stability index of the first is higher: 2.1 for the first, 1.89 for the second.

Going from NWLGRPSKVLSLQDMCCRTIVSCT [L15M] to NWLGRPSKVLSLQDTCCRTIVSCT [L15T], the protein stability index falls from 2.13 to 1.92.

Compared with NWLGRPSKVLSLQDHCCRTIVSCT [L15H], NWLGRPSKVLSLQDACCRTIVSCT [L15A] is higher in protein stability index: 1.99 for the first, 2.15 for the second.

First: NWLGRPSKVLSLQDYCCRTIVSCT [L15Y]
Second: NWLGRPSKVLSLQDQCCRTIVSCT [L15Q]
The protein stability index of the first is lower: 2.15 for the first, 2.42 for the second.

First: NWLGRPSKVLSLQDDCCRTIVSCT [L15D]
Second: NWLGRPSKVLSLQDNCCRTIVSCT [L15N]
The protein stability index of the first is lower: 2.02 for the first, 2.18 for the second.

Compared with NWLGRPSKVLSLQDICCRTIVSCT [L15I], NWLGRPSKVLSLQDECCRTIVSCT [L15E] is lower in protein stability index: 2.31 for the first, 2.15 for the second.

Going from NWLGRPSKVLSLQDSCCRTIVSCT [L15S] to NWLGRPSKVLSLQDGCCRTIVSCT [L15G], the protein stability index falls from 1.96 to 1.74.

First: NWLGRPSKVLSLQDPCCRTIVSCT [L15P]
Second: NWLGRPSKVLSLQDRCCRTIVSCT [L15R]
The protein stability index of the first is lower: 1.62 for the first, 2.51 for the second.

Going from NWLGRPSKVLSLQDVCCRTIVSCT [L15V] to NWLGRPSKVLSLQDKCCRTIVSCT [L15K], the protein stability index rises from 1.72 to 2.16.

Going from NWLGRPSKVLSLQDFCCRTIVSCT [L15F] to NWLGRPSKVLSLQDLCCRLIVSCT [T19L], the protein stability index rises from 1.45 to 2.16.

Going from NWLGRPSKVLSLQDLCCRDIVSCT [T19D] to NWLGRPSKVLSLQDLCCRRIVSCT [T19R], the protein stability index falls from 2.64 to 2.19.

Going from NWLGRPSKVLSLQDLCCRKIVSCT [T19K] to NWLGRPSKVLSLQDLCCRMIVSCT [T19M], the protein stability index falls from 2.69 to 2.27.

First: NWLGRPSKVLSLQDLCCRIIVSCT [T19I]
Second: NWLGRPSKVLSLQDLCCREIVSCT [T19E]
The protein stability index of the first is higher: 2.6 for the first, 2.53 for the second.

Compared with NWLGRPSKVLSLQDLCCRWIVSCT [T19W], NWLGRPSKVLSLQDLCCRNIVSCT [T19N] is higher in protein stability index: 1.97 for the first, 2.91 for the second.

Going from NWLGRPSKVLSLQDLCCRSIVSCT [T19S] to NWLGRPSKVLSLQDLCCRYIVSCT [T19Y], the protein stability index falls from 2.51 to 2.23.

First: NWLGRPSKVLSLQDLCCRGIVSCT [T19G]
Second: NWLGRPSKVLSLQDLCCRPIVSCT [T19P]
The protein stability index of the first is higher: 2.07 for the first, 1.86 for the second.

First: NWLGRPSKVLSLQDLCCRAIVSCT [T19A]
Second: NWLGRPSKVLSLQDLCCRVIVSCT [T19V]
The protein stability index of the first is higher: 2.52 for the first, 2.22 for the second.

Compared with NWLGRPSKVLSLQDLCCRFIVSCT [T19F], NWLGRPSKVLSLQDLCCRCIVSCT [T19C] is lower in protein stability index: 2.26 for the first, 2.04 for the second.

Compared with NWLGRPSKVLSLQDLCCRHIVSCT [T19H], NWLGRPSKVLSLQDLCCRQIVSCT [T19Q] is lower in protein stability index: 2.41 for the first, 2.31 for the second.

Compared with NWLGRPSKVLSWQDLCCRTIVSCT [L12W], NWLGRPSKVLSSQDLCCRTIVSCT [L12S] is lower in protein stability index: 2.25 for the first, 1.73 for the second.

First: NWLGRPSKVLSTQDLCCRTIVSCT [L12T]
Second: NWLGRPSKVLSYQDLCCRTIVSCT [L12Y]
The protein stability index of the first is lower: 1.81 for the first, 3.31 for the second.

First: NWLGRPSKVLSVQDLCCRTIVSCT [L12V]
Second: NWLGRPSKVLSLQDLCCRTIVNCT [S22N]
The protein stability index of the first is higher: 2.87 for the first, 2.69 for the second.

First: NWLGRPSKVLSLQDLCCRTIVMCT [S22M]
Second: NWLGRPSKVLSLQDLCCRTIVACT [S22A]
The protein stability index of the first is higher: 2.61 for the first, 2.23 for the second.

First: NWLGRPSKVLSLQDLCCRTIVHCT [S22H]
Second: NWLGRPSKVLSLQDLCCRTIVECT [S22E]
The protein stability index of the first is lower: 2.26 for the first, 2.57 for the second.

Compared with NWLGRPSKVLSLQDLCCRTIVLCT [S22L], NWLGRPSKVLSLQDLCCRTIVFCT [S22F] is higher in protein stability index: 2.31 for the first, 2.47 for the second.

Compared with NWLGRPSKVLSLQDLCCRTIVDCT [S22D], NWLGRPSKVLSLQDLCCRTIVGCT [S22G] is lower in protein stability index: 2.83 for the first, 2.57 for the second.

Compared with NWLGRPSKVLSLQDLCCRTIVICT [S22I], NWLGRPSKVLSLQDLCCRTIVKCT [S22K] is higher in protein stability index: 1.88 for the first, 2.75 for the second.

First: NWLGRPSKVLSLQDLCCRTIVCCT [S22C]
Second: NWLGRPSKVLSLQDLCCRTISSCT [V21S]
The protein stability index of the first is lower: 2.59 for the first, 2.77 for the second.

Compared with NWLGRPSKVLSLQDLCCRTICSCT [V21C], NWLGRPSKVLSLQDLCCRTILSCT [V21L] is lower in protein stability index: 2.41 for the first, 2.04 for the second.

First: NWLGRPSKVLSLQDLCCRTIFSCT [V21F]
Second: NWLGRPSKVLSLQDLCCRTIPSCT [V21P]
The protein stability index of the first is lower: 2.43 for the first, 2.89 for the second.

Compared with NWLGRPSKVLSLQDLCCRTIKSCT [V21K], NWLGRPSKVLSLQDLCCRTINSCT [V21N] is higher in protein stability index: 2.55 for the first, 2.8 for the second.

Going from NWLGRPSKVLSLQDLCCRTIWSCT [V21W] to NWLGRPSKVLSLQDLCCRTITSCT [V21T], the protein stability index rises from 2.46 to 2.58.

Compared with NWLGRPSKVLSLQDLCCRTIDSCT [V21D], NWLGRPSKVLSLQDLCCRTIHSCT [V21H] is lower in protein stability index: 3.02 for the first, 2.44 for the second.

First: NWLGRPSKVLSLQDLCCRTIQSCT [V21Q]
Second: NWLGRPSKVLSLQDLCCRTIGSCT [V21G]
The protein stability index of the first is higher: 2.8 for the first, 2.64 for the second.

Compared with NWLGRPSKVLSLQDLCCRTIESCT [V21E], NWLGRPSKVLSLQDLCCRTIYSCT [V21Y] is higher in protein stability index: 1.88 for the first, 2.08 for the second.

First: NWLGRPSKVLSLQDLCCRTIMSCT [V21M]
Second: NWLGRPSKVLSLQDLCCRTIRSCT [V21R]
The protein stability index of the first is lower: 2.66 for the first, 3.04 for the second.

Compared with NWLGRPSKVLSLQDLCCRTIASCT [V21A], NWLGRPSKVLSLQDLCCRTIISCT [V21I] is lower in protein stability index: 2.64 for the first, 2.31 for the second.
